Literature values in publication PMC3161823.
pKd: −log10 of the molar value.

Target: Complement factor H (Homo sapiens) (UniProt P08603)
Sequence (P08603 19-1231): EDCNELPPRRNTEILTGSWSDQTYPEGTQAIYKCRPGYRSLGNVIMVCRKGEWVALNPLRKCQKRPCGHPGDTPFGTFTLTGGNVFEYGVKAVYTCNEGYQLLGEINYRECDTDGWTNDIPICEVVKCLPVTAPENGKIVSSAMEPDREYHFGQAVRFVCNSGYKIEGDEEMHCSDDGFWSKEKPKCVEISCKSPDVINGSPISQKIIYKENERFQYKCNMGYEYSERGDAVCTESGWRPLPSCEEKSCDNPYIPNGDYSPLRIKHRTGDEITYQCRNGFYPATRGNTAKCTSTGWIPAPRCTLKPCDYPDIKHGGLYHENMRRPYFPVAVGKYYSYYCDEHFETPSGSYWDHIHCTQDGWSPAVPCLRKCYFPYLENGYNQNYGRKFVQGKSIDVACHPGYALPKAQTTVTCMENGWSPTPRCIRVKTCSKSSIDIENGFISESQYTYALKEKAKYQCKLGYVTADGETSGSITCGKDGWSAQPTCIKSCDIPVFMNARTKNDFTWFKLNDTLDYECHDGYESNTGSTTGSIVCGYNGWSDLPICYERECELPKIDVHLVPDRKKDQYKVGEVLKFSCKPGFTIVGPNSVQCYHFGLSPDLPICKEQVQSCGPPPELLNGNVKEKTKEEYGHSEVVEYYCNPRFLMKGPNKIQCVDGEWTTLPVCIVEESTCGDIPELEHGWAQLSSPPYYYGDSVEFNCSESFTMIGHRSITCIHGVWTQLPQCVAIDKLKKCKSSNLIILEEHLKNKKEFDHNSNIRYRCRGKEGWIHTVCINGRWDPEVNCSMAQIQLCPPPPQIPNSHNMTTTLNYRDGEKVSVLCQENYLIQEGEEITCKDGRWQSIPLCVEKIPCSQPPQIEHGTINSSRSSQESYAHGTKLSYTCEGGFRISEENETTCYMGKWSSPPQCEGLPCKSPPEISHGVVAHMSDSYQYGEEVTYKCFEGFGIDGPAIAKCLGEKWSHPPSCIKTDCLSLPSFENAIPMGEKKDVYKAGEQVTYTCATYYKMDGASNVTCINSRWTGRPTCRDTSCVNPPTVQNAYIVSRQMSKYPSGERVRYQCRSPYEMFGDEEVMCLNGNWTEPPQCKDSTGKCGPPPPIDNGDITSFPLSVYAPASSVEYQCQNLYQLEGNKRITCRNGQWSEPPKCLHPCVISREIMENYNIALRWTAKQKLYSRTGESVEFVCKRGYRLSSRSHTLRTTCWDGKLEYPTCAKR

Sequence of PTX3 (P26022 18-381): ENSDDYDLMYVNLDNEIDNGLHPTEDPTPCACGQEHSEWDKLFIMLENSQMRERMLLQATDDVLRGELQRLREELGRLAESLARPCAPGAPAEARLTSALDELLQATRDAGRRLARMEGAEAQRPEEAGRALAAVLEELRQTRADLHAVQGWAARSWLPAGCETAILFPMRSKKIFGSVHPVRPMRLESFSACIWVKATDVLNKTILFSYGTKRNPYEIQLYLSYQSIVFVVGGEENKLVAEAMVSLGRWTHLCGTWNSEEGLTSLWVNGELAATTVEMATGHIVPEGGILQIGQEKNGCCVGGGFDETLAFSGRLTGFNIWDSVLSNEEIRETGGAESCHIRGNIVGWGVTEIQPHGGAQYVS

In the case of PTX3 (from UniProt P26022), the pKd is listed as 6.96.
